Experimental data published in paper PMC12382605, “Dominant negative ADA2 mutations cause ADA2 deficiency in heterozygous carriers” (The Journal of Experimental Medicine, 2025).
Substitutions are numbered along the chain they refer to. Numbers in names are those of the source. Each block holds one binder with its values, some of them ahead of it.

Legend:
[1] = target: T1, human WT ADA2, myc-FLAG-tagged (pCMV6) (human, UniProt Q9NZK5-1 30-511); assay: cell-based or functional assay
T1 sequence (looked up): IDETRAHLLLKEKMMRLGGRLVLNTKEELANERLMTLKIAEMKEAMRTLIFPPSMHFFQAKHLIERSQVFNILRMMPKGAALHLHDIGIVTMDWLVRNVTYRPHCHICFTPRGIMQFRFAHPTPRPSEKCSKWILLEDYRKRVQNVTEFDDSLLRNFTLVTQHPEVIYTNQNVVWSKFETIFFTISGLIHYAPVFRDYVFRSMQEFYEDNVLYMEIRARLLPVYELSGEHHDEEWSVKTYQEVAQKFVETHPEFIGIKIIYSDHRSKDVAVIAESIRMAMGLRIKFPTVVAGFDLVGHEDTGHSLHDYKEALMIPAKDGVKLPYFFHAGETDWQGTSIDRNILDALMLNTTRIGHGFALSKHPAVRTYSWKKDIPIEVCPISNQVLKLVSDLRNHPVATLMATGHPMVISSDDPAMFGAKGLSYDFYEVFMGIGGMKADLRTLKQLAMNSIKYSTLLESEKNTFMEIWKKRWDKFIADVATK

[2] = target: the molecule itself; assay: native gel or EMSA; supernatant of HEK293T transfected with one ADA2 construct (homozygous condition), collected after 48 h; NativePAGE 4-16% Bis-Tris, western blot with anti-ADA2; dimer band quantified relative to WT100%

B1: ADA2 variant G47A, myc-FLAG-tagged (pCMV6) (enzyme, human, UniProt Q9NZK5-1 30-511, looked up)
chain: T1 sequence (looked up) with G18A
notes: adenosine deaminase 2 (ADA2), human; site-directed mutant of the WT clone of transcript 3, NM_001282225 (OriGene RC238645); Pathogenic variant that occurs in patients; also called p.G47A; source: HEK293T, transfected; in supernatant and whole-cell lysate
adenosine deaminase activity of whole-cell lysate and supernatant of HEK293T cotransfected with WT and variant ADA2 (heterozygous), relative to WT50% [1]: < 75 % of WT50% | residual dimer in the supernatant (% of WT100%) [2]: ~48 % of WT100%

B2: ADA2 variant G47R, myc-FLAG-tagged (pCMV6) (enzyme, human, UniProt Q9NZK5-1 30-511, looked up)
chain: T1 sequence (looked up) with G18R
notes: adenosine deaminase 2 (ADA2), human; site-directed mutant of the WT clone of transcript 3, NM_001282225 (OriGene RC238645); Patient variant; also called p.G47R; source: HEK293T, transfected; in supernatant and whole-cell lysate
adenosine deaminase activity of whole-cell lysate and supernatant of HEK293T cotransfected with WT and variant ADA2 (heterozygous), relative to WT50% [1]: < 75 % of WT50% | residual dimer in the supernatant (% of WT100%) [2]: ~53 % of WT100%

B3: ADA2 variant G47V, myc-FLAG-tagged (pCMV6) (enzyme, human, UniProt Q9NZK5-1 30-511, looked up)
chain: T1 sequence (looked up) with G18V
adenosine deaminase activity of the supernatant of HEK293T cotransfected with WT and variant ADA2 (heterozygous), relative to WT50% [1]: 58 % of WT50%

B5: ADA2 variant G47W, myc-FLAG-tagged (pCMV6) (enzyme, human, UniProt Q9NZK5-1 30-511, looked up)
chain: T1 sequence (looked up) with G18W
notes: adenosine deaminase 2 (ADA2), human; site-directed mutant of the WT clone of transcript 3, NM_001282225 (OriGene RC238645); Pathogenic variant that occurs in patients; source: HEK293T, transfected, in supernatant
residual dimer in the supernatant (% of WT100%) [2]: ~9 % of WT100%

Results, then the binder that gave them:

adenosine deaminase activity of whole-cell lysate and supernatant of HEK293T cotransfected with WT and variant ADA2 (heterozygous), relative to WT50% [1]: < 75 % of WT50%
B4: ADA2 variant E328K, myc-FLAG-tagged (pCMV6) (enzyme, human, UniProt Q9NZK5-1 30-511, looked up)
chain: T1 sequence (looked up) with E299K

adenosine deaminase activity of whole-cell lysate and supernatant of HEK293T cotransfected with WT and variant ADA2 (heterozygous), relative to WT50% [1]: 41 % of WT50%
B6: ADA2 variant Y453C, myc-FLAG-tagged (pCMV6) (enzyme, human, UniProt Q9NZK5-1 30-511, looked up)
chain: T1 sequence (looked up) with Y424C

adenosine deaminase activity of the supernatant of HEK293T cotransfected with WT and variant ADA2 (heterozygous), relative to WT50% [1]: 23 % of WT50%
B7: ADA2 variant R169Q, myc-FLAG-tagged (pCMV6) (enzyme, human, UniProt Q9NZK5-1 30-511, looked up)
chain: T1 sequence (looked up) with R140Q
